This data set can be described thus: self-splicing fitness, log relative to wild type (ln ratio); higher = more splicing; Tetrahymena group I intron in knt gene, E. coli kanamycin selection, DiMSum; sequences stand for … in CUCUCU…GGAGGGAAAAGUUAUCAGGCAUGCACCUGGUAGCUAGUCUUUAAACCAAUAGAUUGCAUCGGUUUAAAAGGCAAGACCGUCAAAUUGCGGGAAAGGGGUCAACAGCCGUUCAGUACCAAGUCUCAGGGGAAACUUUGAGAUGGCCUUGCAAAGGGUAUGGUAAUAAGCUGACGGACAUGGUCCUAACCACGCAGCCAAGUCCUAAGUCAACAGAUCUUCUGUUGAUAUGGAUGCAGUUCACAGACUAAAUGUCGGUCGGGGAAGAUGUAUUCUUCUCAUAAGAUAUAGUCGGACCUCUCCUUAAUGGGAGCUAGCGGAUGAAGUGAUGCAACACUGGAGCCGCUGGGAACUAAUUUGUAUGCGAAAGUAUAUUGAUUAGUUUUGGAGUACUCGUGGUCG
A digest of the protocol:
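Six replicate transformations of E. coli BL21(DE3) with a pET-22b(+) library were grown overnight at 37°C or 30°C. The library randomised all eight P1ex-region intron nucleotides, the intron lying in the knt kanamycin-resistance gene, and plates were LB agar with or without 25 μg/mL kanamycin plus 100 μg/mL carbenicillin, 50 μM IPTG and 0.2% rhamnose. Pooled colonies were amplicon-sequenced on an Illumina HiSeq 2500, and fitness is the DiMSum error-weighted combination of wild-type-normalised replicate fold changes, kanamycin versus none.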

± gives the uncertainty stated by the source.

As to AGCUAGCAAUAUUACGUGCG, the “self-splicing fitness (ln)” value (30 °C) was -1.02 ± 0.066 and the “self-splicing fitness (ln)” value (37 °C) is -0.499 ± 0.091.

In the case of AUGCAGCAAUAUUACGACAG, the “self-splicing fitness (ln)” value is -0.0726 ± 0.086 (30 °C) and -0.339 ± 0.16 (37 °C).

Turning to UCUCAGCAAUAUUACGGUCG, the “self-splicing fitness (ln)” value reads like this: (30 °C) -1.96 ± 0.15; (37 °C) -0.825 ± 0.14.

In the case of GAUGAGCAAUAUUACGGAGC, the “self-splicing fitness (ln)” value is -3.9 ± 0.3 (30 °C) and -0.441 ± 0.13 (37 °C).

With AGGGAGCAAUAUUACGUAUG, the “self-splicing fitness (ln)” value reads like this: (30 °C) -2.98 ± 0.3; (37 °C) -2.37 ± 0.49.

In the case of CUAUAGCAAUAUUACGCUGG, the “self-splicing fitness (ln)” value is, setting by setting: (30 °C) -3.36 ± 0.37; (37 °C) -2.05 ± 0.32.

For the sequence UGGAAGCAAUAUUACGGAAU, the “self-splicing fitness (ln)” value runs as follows: (30 °C) -2.76 ± 0.12; (37 °C) -1.01 ± 0.096.

For the sequence UUGAAGCAAUAUUACGUUUU, the “self-splicing fitness (ln)” value by setting is: (30 °C) -2.7 ± 0.2; (37 °C) -2.52 ± 0.3.

In the case of AUAUAGCAAUAUUACGUACC, the “self-splicing fitness (ln)” value (30 °C) was -1.41 ± 0.2 and the “self-splicing fitness (ln)” value (37 °C) was -0.927 ± 0.28.

Regarding UAGAAGCAAUAUUACGGCGG, the “self-splicing fitness (ln)” value (30 °C) was -0.497 ± 0.099 and the “self-splicing fitness (ln)” value (37 °C) stood at 0.388 ± 0.12.

UACUAGCAAUAUUACGGUUC: the “self-splicing fitness (ln)” value was -2.29 ± 0.29 (30 °C) and -1.63 ± 0.39 (37 °C).

Consider GCAGAGCAAUAUUACGACCG, for which the “self-splicing fitness (ln)” value (30 °C) is -3.12 ± 0.46.

Turning to CCUGAGCAAUAUUACGCGCG, the “self-splicing fitness (ln)” value by setting is: (30 °C) -3.05 ± 0.21; (37 °C) -3.29 ± 0.26.

Turning to AUUGAGCAAUAUUACGGUUU, the “self-splicing fitness (ln)” value is -3.23 ± 0.21 (30 °C) and -2.16 ± 0.22 (37 °C).

With GUCAAGCAAUAUUACGUCUG, the “self-splicing fitness (ln)” value by setting is: (30 °C) -3.64 ± 0.28; (37 °C) -0.0416 ± 0.085.

AGCGAGCAAUAUUACGAGUU: the “self-splicing fitness (ln)” value was -2.61 ± 0.19 (30 °C) and -1.21 ± 0.18 (37 °C).

Regarding AAUAAGCAAUAUUACGACGG, the “self-splicing fitness (ln)” value by setting is: (30 °C) -2.35 ± 0.15; (37 °C) -1.34 ± 0.19.

For GCUCAGCAAUAUUACGUGGU, the “self-splicing fitness (ln)” value (30 °C) was -1.88 ± 0.13 and the “self-splicing fitness (ln)” value (37 °C) was -1.31 ± 0.17.

Consider AGCGAGCAAUAUUACGUUUG, for which the “self-splicing fitness (ln)” value was -3.44 ± 0.2 (30 °C) and -3.64 ± 0.31 (37 °C).

As to AAAAAGCAAUAUUACGGUCG, the “self-splicing fitness (ln)” value by setting is: (30 °C) -0.302 ± 0.062; (37 °C) 0.273 ± 0.083.

Turning to CUGCAGCAAUAUUACGACGU, the “self-splicing fitness (ln)” value by setting is: (30 °C) -2.98 ± 0.18; (37 °C) -2.49 ± 0.29.

For the sequence CCUUAGCAAUAUUACGAGCU, the “self-splicing fitness (ln)” value was -4 ± 0.33 (30 °C) and -2.74 ± 0.29 (37 °C).

As to GAGCAGCAAUAUUACGGGCC, the “self-splicing fitness (ln)” value (30 °C) was -2.94 ± 0.33 and the “self-splicing fitness (ln)” value (37 °C) is -1.21 ± 0.29.

For the sequence UGUGAGCAAUAUUACGUAGA, the “self-splicing fitness (ln)” value (37 °C) was -0.751 ± 0.44.

Regarding ACCUAGCAAUAUUACGCUCG, the “self-splicing fitness (ln)” value was -1.43 ± 0.12 (30 °C) and -1.48 ± 0.14 (37 °C).

CUAUAGCAAUAUUACGCGAU: the “self-splicing fitness (ln)” value was -2.31 ± 0.12 (30 °C) and -1.5 ± 0.12 (37 °C).

Consider UAUCAGCAAUAUUACGACGG, for which the “self-splicing fitness (ln)” value was -0.775 ± 0.098 (30 °C) and 0.242 ± 0.13 (37 °C).

As for AAUCAGCAAUAUUACGUUGU, the “self-splicing fitness (ln)” value runs as follows: (30 °C) -2.38 ± 0.1; (37 °C) -1.68 ± 0.12.

As to CCUCAGCAAUAUUACGGCUG, the “self-splicing fitness (ln)” value is -3.84 ± 0.21 (30 °C) and -2.36 ± 0.18 (37 °C).

In the case of CAAUAGCAAUAUUACGUCCA, the “self-splicing fitness (ln)” value is, setting by setting: (30 °C) -2.87 ± 0.29; (37 °C) -2.25 ± 0.25.

As to ACUAAGCAAUAUUACGGAAU, the “self-splicing fitness (ln)” value runs as follows: (30 °C) -1.97 ± 0.1; (37 °C) -2.04 ± 0.16.

In the case of GCACAGCAAUAUUACGGAGG, the “self-splicing fitness (ln)” value is -2 ± 0.099 (30 °C) and -0.502 ± 0.11 (37 °C).

With GUAUAGCAAUAUUACGGCGC, the “self-splicing fitness (ln)” value reads like this: (30 °C) -0.053 ± 0.11; (37 °C) -0.157 ± 0.12.

Take CUAGAGCAAUAUUACGCUUA: the “self-splicing fitness (ln)” value is, setting by setting: (30 °C) -3.65 ± 0.3; (37 °C) -2.77 ± 0.26.

As to GCAUAGCAAUAUUACGCCGC, the “self-splicing fitness (ln)” value (37 °C) was -1.28 ± 0.27.

With GGACAGCAAUAUUACGUCCA, the “self-splicing fitness (ln)” value runs as follows: (30 °C) -1.24 ± 0.13; (37 °C) -0.889 ± 0.16.

For GCACAGCAAUAUUACGGCCA, the “self-splicing fitness (ln)” value was -1.84 ± 0.21 (30 °C) and -0.441 ± 0.19 (37 °C).

Regarding UAUUAGCAAUAUUACGUGAA, the “self-splicing fitness (ln)” value was -2.17 ± 0.13 (30 °C) and -1.87 ± 0.15 (37 °C).

For the origin of these results see the supplement of paper PMC7877785.
